The results in this text go back to US20180313827A1.

The target of assay [1] is Ddx4_N1_1 (disordered N-terminus of Ddx4 protein, forming Ddx4N1 membraneless organelles / proteinaceous phase) (Homo sapiens (Human)) (UniProt Q9NQI0). Put plainly: confocal fluorescence microscopy, partitioning inside vs outside Ddx4N1 organelles in vitro; 5 µM, 150 mM NaCl.
The target is the same in assay [2]. Description: confocal fluorescence microscopy, partitioning inside vs outside Ddx4N1 organelles in vitro; 11.8 µM, 175 mM NaCl.

Chain of UniProt Q9NQI0 (Q9NQI0 other isoform, or with tags, fused parts or gaps limits assumed): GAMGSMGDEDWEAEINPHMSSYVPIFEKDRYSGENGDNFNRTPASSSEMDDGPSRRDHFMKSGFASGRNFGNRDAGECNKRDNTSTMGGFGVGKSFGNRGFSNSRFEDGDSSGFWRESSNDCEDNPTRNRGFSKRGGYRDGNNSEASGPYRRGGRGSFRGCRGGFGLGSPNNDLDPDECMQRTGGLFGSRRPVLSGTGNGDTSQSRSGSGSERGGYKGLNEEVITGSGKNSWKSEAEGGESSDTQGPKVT

For the substance “GFP^-30 (acidic GFP, -30 surface charge)”, the ΔGpart (partition free energy into Ddx4N1 organelles) in assay [1] stood at 1.6 kJmol^-1.

As for “aB_GFP (alphaB-crystallin fused to GFP, oligomer)”, the ΔGpart (partition free energy into Ddx4N1 organelles) in assay [2] is -7.8 kJmol^-1.
